# Laboratory results published in patent US20250333515A1.
# Substitutions are numbered along the chain they refer to.
# B1: Anti-CLL-1 Binder Clone 2 (scFv, not shown: small tags and cut ends)
# scFv: QSVLTQPLSVSVALGQTARITCGGNNIGSKNVHWYQQKAGQAPVLVIQRDSNRPSGIPERFSGSNSGNTATLTISRAQAGDEADYFCQVWDSNTYVFGTGTKLTVLGGGGSGGGGSGGGGSEVQLVESGGGLVKPGGSLRLSCAASGFTFSDYYMSWIRQAPGKGLEWVSYISSSGSTIYYADSVKGRFTISRDNAKNSLYLQMNSLRDEDTAVYYCARQSAEIVGAFDHWGQGTMVTVSS
# B2: Anti-CLL-1 Binder Clone 38 (scFv, not shown: small tags and cut ends)
# scFv: DIQMTQSPSTLSASVGDRVTITCRASQSISSWLAWYQQKPGKAPKLLIYTASSLQSGVPSRFSGSESGTDFTLTISSLQPEDFATYYCQQSYSTPLTFGGGTKVDIKGGGGSGGGGSGGGGSQVQLVQSGAEVKKPGASVKVSCKASGYTFTGYYMHWVRQAPGQGLEWMGWINPNSGGTNYAQKFQGRVTLTRDTSITTAYLELTSLTSDDTAVYYCARGDTGDFFDHWGQGTLVTVSS
# B3: Anti-CLL-1 Binder Clone 41 (scFv, not shown: small tags and cut ends)
# scFv: QSVLTQPASVSGSLGQSITISCTGTSRDVGGYNFVSWYQQHPGKAPKLIIFDVTTRPSGLSDRFSASKSGNTASLTISGLQAEDEADYFCGSYTASDTMLFGGGTKLTVLGGGGSGGGGSGGGGSQVQLLESGGGVVQPGRSLRLSCAASGFTFDDYAMHWVRQAPGKGLEWVSGISWNSGSIGYADSVKGRFTVSRDNSKNTLYQQMNGLRAEDTAVYYCAREGRPTAFDYWGQGTTVTVSS
# B4: Anti-CLL-1 Binder Clone 12 (scFv, not shown: small tags and cut ends)
# scFv: DIQMTQSPSSLSASVGDRVTITCQASQDISNYLNWYQQKPGKAPKLLIYDASNLETGVPSRFSGSGSGTDFTLTISSPQPEDLATYYCQQANSFPFTFGQGTKVEIKGGGGSGGGGSGGGGSQVQLVQSGAEVKKPGSSVKVSCKASGYSFTRNDITWVRQANGRGLEWLGRLNPNNGDTVYAEVFQGRVAMTRDTSTDTAYMELASLKSDDTAVYFCARGFWSFDVWGQGTMVTVSS
# B5: Anti-CLL-1 Binder Clone 11 (scFv, not shown: small tags and cut ends)
# scFv: QSVLTQPASVSGSPGQSITISCTGTSSDVGASNSVSWYQRHPGKPPKLMIYDVSNRPSGISNRFSGSKSGNTASLTISGLQSEDEADYYCSSYTGSSTFVVFGGGTQLIILGGGGSGGGGSGGGGSEVQLVESGGGVVQPGGSLRLSCAASGFTFSSYWMSWVRQAPGKGLEWVANIRQDGSEKYYVDSVKGRFTISRDNAKNSLYLQMNSLRAEDAAVYYCAREQDTAMVAFDYWGQGTLVTVSS
# B6: Anti-CLL-1 Binder Clone 10 (scFv, not shown: small tags and cut ends)
# scFv: DIQMTQSPSFLSASVGDRVTITCRASQGISSYLAWYQQKPGKAPKLLIYSASSLQSGVPSRFSGSGSGTDFTLTISSLQPEDFATYYCQQSYNSPTFGQGTRLEIKGGGGSGGGGSGGGGSQVQLVQSGAEVKKPGASVKVSCKASGYTFTGYYMHWVRQAPGQGLEWMGWMNPNSGNTGYAQKFQGRVTMTRNTSISTAYLELTSLTSDDTAVYYCARGDTGDFFDHWGQGTLVTVSS
# B7: Anti-CLL-1 Binder Clone 40 (scFv, not shown: small tags and cut ends)
# scFv: QSVLTQPPSVSAAPGQKVTISCSGSSSNIGNNYVSWYQQLPGTAPKLLIYDNNKRPSGIPDRFSGSESGTSATLGITGLQTGDEADYYCGTWDSSLSAWVFGGGTQLIILGGGGSGGGGSGGGGSQVQLQQSGPGLVKPSQTLSLTCAISGDSVSSNSAAWNWIRQSPSRGLEWLGRTHYRSKWYNDYAVSVKSRITISADTSKNQFSLQLNSVTPEDTAVYYCARDRYTVRPDAFDIWGQGTTVTVSS
# B8: Anti-CLL-1 Binder Clone 4 (scFv, not shown: small tags and cut ends)
# scFv: QSVVTQPPSVSAAPGQKVTISCSGSSPNIGKNYVSWYQQLPGTAPKLLIYDNNKRPSGIPDRFSGSKSGTSATLGITGLQTGDEADYYCGTWDSSLSGYVFGTGTKVTVLGGGGSGGGGSGGGGSQVQLVESGGGVVQPGRSLRLSCAASGFTFSSYGMHWVRQAPGKGLEWVAFISHDGSNKYYADSVKGRSTISRDNSKSTLFLQMNSLRDEDTAVYFCAREGQLTTSWDFFDYWGHGTLVTVSS
# B9: Anti-CLL-1 Binder Clone 20 (VHH, not shown: small tags and cut ends)
# VHH: QVQLVQSGGGLVQPGGSLRLSCAASDFSFSYYEMSWVRQAPGKGLEWVSTISGSGDSTYYADSVKGRFTISRDNTKNTLYLQMNTLRAEDTATYYCMTDGETWGTHRYTVYWGQGALVTVSS
# B10: Anti-CLL-1 Binder Clone 6 (scFv, not shown: small tags and cut ends)
# scFv: QSVLTQPPSVSAAPGQKVSIFCSGGSSNIGKNYVSWYQQLPGTAPKLLIYENQHRPSGIPDRFSGSKSGTSATLGITGLQTGDEADYYCATWDDSLSAGVFGGGTELTVLGGGGSGGGGSGGGGSQLVQSGAEVRKPGESLKISCKGSGYSFTSYWIGWVRQMPGKGLEWMGFIYPGDSDTRYSPSFQGQVTISADKSISTAYLQRSSLKASDTAMYYCARLGGYSGYDSEVFYLDYWGQGTTVTVSS
# B11: Anti-CLL-1 Binder Clone 94 (VHH)
# VHH: QVQLVQSGGGLVQPGGSLRLSCAASYFDFAAYDMDWVRQAPGQRLEWVAKISHDGSYSWYADSVKGRFTISRDNSKNTLYLQMNTLRAEDTAVYYCVRGEGGSERADYWGRGTLVTVSS
# B12: Anti-CLL-1 Binder Clone 95 (VHH)
# VHH: QVQLVQSGGGLVQPGGSLRLSCAASAFDFDDSSMDWVRQAPGKALEWIGSISYFGSTYYNPSLKSRVTISRDNSKNTLYLQMNTLRAEDTATYYCTRSALYGDAAFDVWAQGTTVTVS
# B13: Anti-CLL-1 Binder Clone 98 (VHH)
# VHH: QVQLVQSGGGLVQPGGSLRLSCAASDFYFDDYEMSWVRQAPGQRLEWVSLISSDGTTYYADSVKGRFTISRDNSKNTLYLQMNTLRAEDTALYYCVRTTDSWELDLWGRGTLVTVSS
# B14: Anti-CLL-1 Binder Clone 102 (VHH)
# VHH: QVQLVQSGGGLVQPGGSLRLSCAASYFSFADYEMSWVRQAPGQRLEWVAVVSKDGNELYYADSVKGRFTISRDNSKNTLYLQMNTLRAEDTAVYYCVKDPYDFWSGYYSNWGQGTLVTVSS
# B15: Anti-CLL-1 Binder Clone 97 (VHH)
# VHH: QVQLVQSGGGLVQPGGSLRLSCAASDFDFDDDSMDWVRQAPGKGLEWIGSVLHDGATYYNPSLKSRVTISRDNSKNTLYLQMNTLRAEDTATYYCTRSALYGDAAFDVWAQGTMVTVSS
# B16: Anti-CLL-1 Binder Clone 100 (VHH)
# VHH: B15 VHH with G44A, L52S, H53Y, D54S, A56Q, Y58F, T92M
# B17: Anti-CLL-1 Binder Clone 101 (VHH)
# VHH: B15 VHH with D30A, G44A, V51I, L52F, H53Y, D54S, A56T, T92V
# B18: Anti-CLL-1 Binder Clone 99 (VHH)
# VHH: QVQLVQSGGGLVQPGGSLRLSCAASAFDFYSYEMSWVRQAPGKGLEWVSYIGPIGTDIGYADSVKGRFTISRDNSKNTLYLQMNTLRAEDTAMYYCAKDPYYDSTGLTSYWGQGTLVTVSS
# B19: Anti-CLL-1 Binder Clone 96 (VHH)
# VHH: QVQLVQSGGGLVQPGGSLRLSCAASYFDFSYYEMSWVRQAPGKGLEWVSLMSGNGGSTYYADSVKGRFTISRDNSKNTLYLQMNTLRAEDTATYYCVAHSSTWFSWGQGTLVTVSS
# Molecular target: biotinylated recombinant human CLL-1 extracellular domain protein, isoform with glutamine at amino acid position 244 (human) (UniProt Q5QGZ9)
# Sequence (Q5QGZ9 65-265): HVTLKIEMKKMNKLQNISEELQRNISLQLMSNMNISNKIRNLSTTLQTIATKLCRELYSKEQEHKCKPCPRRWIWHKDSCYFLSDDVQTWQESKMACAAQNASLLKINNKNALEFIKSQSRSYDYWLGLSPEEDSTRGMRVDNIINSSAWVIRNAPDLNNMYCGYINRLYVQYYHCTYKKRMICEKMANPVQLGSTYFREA
# Experiment: Exp 2 (= Blitz, CLL-1-Q244 of FIG. 12B)
row,Kd [nM],Binder
1,70,B1
2,14,B2
3,306,B3
4,45,B4
5,41,B5
6,21,B6
7,14,B7
8,13,B8
9,33,B9
10,11,B10

# Molecular target: biotinylated recombinant human CLL-1 extracellular domain protein, isoform with glutamine at amino acid position 244 (human) (UniProt Q5QGZ9)
# Experiment: EC50 table, CLL-1 Q244; reciprocals of the ELISA bars of FIG. 8B
row,EC50 [nM],Binder
1,90,B11
2,5.3,B12
3,11,B13
4,2.5,B14
5,1.3,B15
6,0.59,B16
7,4.8,B17
8,88,B18
9,6.4,B19

# Molecular target: biotinylated recombinant human CLL-1 extracellular domain protein, isoform with glutamine at amino acid position 244 (human) (UniProt Q5QGZ9)
# Experiment: BLItz, 1:1 model (Q244 per FIG. 12B)
Kd [nM],koff [s⁻¹],kon [M⁻¹ s⁻¹],Binder
70,0.0033,47000,B1
14,0.00097,69000,B2
306,0.032,100000,B3
45,0.0034,76000,B4
41,0.0023,59000,B5
21,0.0013,62000,B6
14,0.00081,58000,B7
13,0.00057,43000,B8
33,0.0035,110000,B9
11,0.00029,27000,B10

# Molecular target: biotinylated recombinant human CLL-1 extracellular domain protein, isoform with lysine at amino acid position 244 (human) (UniProt Q5QGZ9)
# Sequence (Q5QGZ9 65-265): as above
# Experiment: Exp 1 (= Octet, CLL-1-K244 of FIG. 12B)
row,Kd [nM],Binder
1,1.74,B2
2,16.6,B5
3,2.61,B6
4,8.35,B7
5,5.68,B9
6,5.08,B10

# Molecular target: biotinylated recombinant human CLL-1 extracellular domain protein, isoform with lysine at amino acid position 244 (human) (UniProt Q5QGZ9)
# Experiment: EC50 table, CLL-1 K244; reciprocals of the ELISA bars of FIG. 8B
row,EC50 [nM],Binder
1,5.1,B12
2,12,B13
3,2.6,B14
4,1.3,B15
5,0.6,B16
6,4.8,B17
7,93,B18
8,6.4,B19

# Molecular target: biotinylated recombinant human CLL-1 extracellular domain protein, isoform with lysine at amino acid position 244 (human) (UniProt Q5QGZ9)
# Experiment: Octet (CLL-1-K244); variant column: Q>K
row,Kd [nM],Binder
1,16.6,B5

# Molecular target: biotinylated recombinant human CLL-1 extracellular domain protein, isoform with lysine at amino acid position 244 (human) (UniProt Q5QGZ9)
# Experiment: Octet (CLL-1-K244); variant: Both
row,Kd [nM],Binder
1,1.74,B2
2,2.61,B6
3,5.68,B9
4,5.08,B10

# Molecular target: biotinylated recombinant human CLL-1 extracellular domain protein, isoform with lysine at amino acid position 244 (human) (UniProt Q5QGZ9)
# Experiment: Octet (CLL-1-K244); variant column says Only Q
row,Kd [nM],Binder
1,8.35,B7

# Molecular target: biotinylated recombinant human CLL-1 extracellular domain protein, isoform with glutamine at amino acid position 244 (human) (UniProt Q5QGZ9)
# Experiment: Blitz (CLL-1-Q244)
row,Kd [nM],Binder
1,70,B1
2,14,B2
3,306,B3
4,45,B4
5,41,B5
6,21,B6
7,14,B7
8,13,B8
9,33,B9
10,11,B10
